B1: Epsin-1 (Saccharomyces cerevisiae), Q12518 (parent)
chain: MSKQFVRSAKNLVKGYSSTQVLVRNATSNDNHQVSKDSLIELAEKSYDSADFFEIMDMLDKRLNDKGKYWRHIAKALTVIDYLIRFGSENCVLWCRENLYIIKTLKEFRHEDDEGIDQGQIVRVKAKELTALLSDDERLNEERNMNIKGRNRKGRRRRGTGRSDENDDDLQRAISASRLTAEEDERRRKQDEDYETALQLSKEEEELKRLQDLQRMQQQQGQQQLQQPMYYDIFGNPITPEEYAQFQLQQQQQQQQQQLQQQPMYYDVFGNPITPEELAQFQQQQQLQEQQYLASMQQQQQAMSNNPFAKSEQSSSSPKRNQLVAASSPQQLQQQKQQEPLIQNRTGNQSMTDKYSKLNELLATGTGIDTFGNVGEARIPAQHTKTGTFINSQGTGYRQVSDDPNHNPFLNSQYTGLPSTSVVPTQTGYGFGNQSQQQSQNNGSNNRGYTLIDL
partner: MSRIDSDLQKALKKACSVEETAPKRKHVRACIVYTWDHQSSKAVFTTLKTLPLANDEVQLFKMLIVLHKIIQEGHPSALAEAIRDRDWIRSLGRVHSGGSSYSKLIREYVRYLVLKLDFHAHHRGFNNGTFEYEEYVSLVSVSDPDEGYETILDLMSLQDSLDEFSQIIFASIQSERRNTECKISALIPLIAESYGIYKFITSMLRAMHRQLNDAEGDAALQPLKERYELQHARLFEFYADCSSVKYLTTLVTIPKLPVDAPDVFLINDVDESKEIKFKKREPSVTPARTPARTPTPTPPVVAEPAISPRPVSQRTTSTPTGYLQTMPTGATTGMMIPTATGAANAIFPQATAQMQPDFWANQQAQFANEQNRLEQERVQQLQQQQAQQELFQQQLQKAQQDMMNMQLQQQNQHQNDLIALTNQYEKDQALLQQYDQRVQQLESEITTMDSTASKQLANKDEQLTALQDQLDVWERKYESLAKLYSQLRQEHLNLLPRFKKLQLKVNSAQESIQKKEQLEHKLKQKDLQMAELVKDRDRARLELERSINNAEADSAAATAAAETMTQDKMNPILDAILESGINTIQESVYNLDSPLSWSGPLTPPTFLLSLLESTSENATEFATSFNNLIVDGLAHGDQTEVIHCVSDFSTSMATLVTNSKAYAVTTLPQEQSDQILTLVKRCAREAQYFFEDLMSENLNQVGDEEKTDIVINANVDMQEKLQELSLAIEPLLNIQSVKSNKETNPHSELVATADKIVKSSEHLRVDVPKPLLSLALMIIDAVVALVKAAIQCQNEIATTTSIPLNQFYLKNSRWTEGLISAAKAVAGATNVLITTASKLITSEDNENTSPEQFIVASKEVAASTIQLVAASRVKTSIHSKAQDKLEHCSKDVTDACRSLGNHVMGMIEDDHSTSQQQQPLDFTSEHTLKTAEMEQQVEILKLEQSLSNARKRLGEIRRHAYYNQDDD

Variants of: B1
Settings: with sla2_yeast SLA2, P33338

effect of a mutation on the interaction | Variant
disrupting interaction strength | T104A

From IntAct's records for PubMed 22927393
